The source of these data is US9872922B2, “Anti-EFNA4 antibody-drug conjugates” (PFIZER, INC., priority 2013, dated 2018).

In this assay the target is T1, human Ephrin-A4 (Homo sapiens, UniProt P52798).
T1 construct: purchased
T1 sequence (P52798 26-170): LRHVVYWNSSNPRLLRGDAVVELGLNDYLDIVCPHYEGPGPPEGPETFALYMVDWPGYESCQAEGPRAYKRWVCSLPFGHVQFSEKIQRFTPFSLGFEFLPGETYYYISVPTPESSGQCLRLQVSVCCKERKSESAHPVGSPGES
The experiment in a line: SPR steady state affinity of Eph receptors for Ephrin-A4. Type of assay: binding. Conditions: for Kd: SPR BIAcore 2000, steady state affinity fit, captured Eph receptor, monomeric human Ephrin-A4 as analyte; for rank of affinity for Ephrin-A4 among nine Eph receptors: steady state affinity. The procedure: The properties of Ephrin-A4 binding to Eph receptors were further analyzed. Since anti-EFNA4 antibodies bind to Ephrin-A4 while the ligand is engaged with its Eph receptor, the affinity between these two macromolecules was determined. The affinities of commercially available Eph receptors and Ephrin-A4 were directly compared by surface plasmon resonance using a BIAcore 2000 (GE Healthcare) to determine the most relevant receptor. An anti-human antibody capture kit was used to immobilize recombinant Eph receptors on a CM5 biosensor chip. Prior to each antigen injection cycle, Eph receptors at the concentration of 2 μg/mL were captured on the surface with a contact time of 2 minutes and a flow rate of 5 μL/min. The captured antibody loading from baseline was constant at 150-260 response units. Following receptor capture and 1 min baseline, monomeric human Ephrin-A4 was flowed over the surface at concentrations of 400, 241, 145, 87, 53, 32, 19 and 12 nM for a 2 minute association phase followed by a 2 minute dissociation phase at a flow rate of 10 μL/min. Following each cycle, the anti-human capture surface was regenerated with 30 seconds contact time of 3M MgCl2 at 10 μL/min.
Biacore data was processed by initially calculating an average of the response at equilibrium (Req). The Req was then plotted versus concentration (M) and the steady state affinity fit was used to calculate the affinity and theoretical Rmax. In all cases, at least 5 different analyte concentrations were used to make this calculation. All data analysis steps were completed in BiaEvaluation Software 3.1 (GE Healthcare).

Take “EphA2: recombinant Eph receptor captured on biosensor chip [reference compound]”: the equilibrium dissociation constant (Kd) is 31 nM and the “rank of affinity for Ephrin-A4 among nine Eph receptors” value is listed as “highest affinity”.

B1: EphA10: recombinant Eph receptor captured on biosensor chip (protein)
chain: EEVILLDSKASQAELGWTALPSNGWEEISGVDEHDRPIRTYQVCNVLEPNQDNWLQTGWISRGRGQRIFVELQFTLRDCSSIPGAAGTCKETFNVYYLETEADLGRGRPRLGGSRPRKIDTIAADESFTQGDLGERKMKLNTEVREIGPLSRRGFHLAFQDVGACVALVSVRVYYKQCRATVRGLATFPATAAESAFSTLVEVAGTCVAHSEGEPGSPPRMHCGADGEWLVPVGRCSCSAGFQERGDFCEACPPGFYKVSPRRPLCSPCPEHSRALENASTFCVCQDSYARSPTDPPSASCTRPPSAPRDLQYSLSRSPLVLRLRWLPPADSGGRSDVTYSLLCLRCGREGPAGACEPCGPRVAFLPRQAGLRERAATLLHLRPGARYTVRVAALNGVSGPAAAAGTTYAQVTVSTGPGAPWEEDEIRRDRVEPQSVSLSWREPIPAGAPGANDTEYEIRYYEKGQSEQTYSMVKTGAPTVTVTNLKPATRYVFQIRAASPGPSWEAQSFNPSIEVQTLGEAASGSRDQSPA
Regarding B1, binding was put at a Kd of 431 nM and the “rank of affinity for Ephrin-A4 among nine Eph receptors” value is “lowest affinity”.

B2: EphA3 (protein)
chain: ELIPQPSNEVNLLDSKTIQGELGWISYPSHGWEEISGVDEHYTPIRTYQVCNVMDHSQNNWLRTNWVPRNSAQKIYVELKFTLRDCNSIPLVLGTCKETFNLYYMESDDDHGVKFREHQFTKIDTIAADESFTQMDLGDRILKLNTEIREVGPVNKKGFYLAFQDVGACVALVSVRVYFKKCPFTVKNLAMFPDTVPMDSQSLVEVRGSCVNNSKEEDPPRMYCSTEGEWLVPIGKCSCNAGYEERGFMCQACRPGFYKALDGNMKCAKCPPHSSTQEDGSMNCRCENNYFRADKDPPSMACTRPPSSPRNVISNINETSVILDWSWPLDTGGRKDVTFNIICKKCGWNIKQCEPCSPNVRFLPRQFGLTNTTVTVTDLLAHTNYTFEIDAVNGVSELSSPPRQFAAVSITTNQAAPSPVLTIKKDRTSRNSISLSWQEPEHPNGIILDYEVKYYEKQEQETSYTILRARGTNVTISSLKPDTIYVFQIRARTAAGYGTNSRKFEFETSPDSFSISGESSQ
In turn, B2 came in with a Kd of 77 nM.

B3: EphA1 (protein)
chain: KEVTLMDTSKAQGELGWLLDPPKDGWSEQQQILNGTPLYMYQDCPMQGRRDTDHWLRSNWIYRGEEASRVHVELQFTVRDCKSFPGGAGPLGCKETFNLLYMESDQDVGIQLRRPLFQKVTTVAADQSFTIRDLVSGSVKLNVERCSLGRLTRRGLYLAFHNPGACVALVSVRVFYQRCPETLNGLAQFPDTLPGPAGLVEVAGTCLPHARASPRPSGAPRMHCSPDGEWLVPVGRCHCEPGYEEGGSGEACVACPSGSYRMDMDTPHCLTCPQQSTAESEGATICTCESGHYRAPGEGPQVACTGPPSAPRNLSFSASGTQLSLRWEPPADTGGRQDVRYSVRCSQCQGTAQDGGPCQPCGVGVHFSPGARGLTTPAVHVNGLEPYANYTFNVEAQNGVSGLGSSGHASTSVSISMGHAESLSGLSLRLVKKEPRQLELTWAGSRPRSPGANLTYELHVLNQDEERYQMVLEPRVLLTELQPDTTYIVRVRMLTPLGPGPFSPDHEFRTSPPVSRGLTGGE
The molecule B3 returned a Kd of 414 nM.

B4: EphB2 (protein)
chain: VEETLMDSTTATAELGWMVHPPSGWEEVSGYDENMNTIRTYQVCNVFESSQNNWLRTKFIRRRGAHRIHVEMKFSVRDCSSIPSVPGSCKETFNLYYYEADFDSATKTFPNWMENPWVKVDTIAADESFSQVDLGGRVMKINTEVRSFGPVSRSGFYLAFQDYGGCMSLIAVRVFYRKCPRIIQNGAIFQETLSGAESTSLVAARGSCIANAEEVDVPIKLYCNGDGEWLVPIGRCMCKAGFEAVENGTVCRGCPSGTFKANQGDEACTHCPINSRTTSEGATNCVCRNGYYRADLDPLDMPCTTIPSAPQAVISSVNETSLMLEWTPPRDSGGREDLVYNIICKSCGSGRGACTRCGDNVQYAPRQLGLTEPRIYISDLLAHTQYTFEIQAVNGVTDQSPFSPQFASVNITTNQAAPSAVSIMHQVSRTVDSITLSWSQPDQPNGVILDYELQYYEKELSEYNATAIKSPTNTVTVQGLKAGAIYVFQVRARTVAGYGRYSGKMYFQTMTEAEYQTSIQEKLPL
On to B4, for which the affinity, expressed as Kd, was 135 nM.

Broadly, the Kd is the equilibrium constant for the complex coming apart. A high value points to weaker binding.
